Results on three molecules are retold here after US20120121608A1 (CALIFORNIA INSTITUTE OF TECHNOLOGY, published 2012).

To fix the notation:
T1: RIP, endogenous, in mouse embryonic fibroblasts (mouse, UniProt Q60855 1-656)
T1 sequence (looked up): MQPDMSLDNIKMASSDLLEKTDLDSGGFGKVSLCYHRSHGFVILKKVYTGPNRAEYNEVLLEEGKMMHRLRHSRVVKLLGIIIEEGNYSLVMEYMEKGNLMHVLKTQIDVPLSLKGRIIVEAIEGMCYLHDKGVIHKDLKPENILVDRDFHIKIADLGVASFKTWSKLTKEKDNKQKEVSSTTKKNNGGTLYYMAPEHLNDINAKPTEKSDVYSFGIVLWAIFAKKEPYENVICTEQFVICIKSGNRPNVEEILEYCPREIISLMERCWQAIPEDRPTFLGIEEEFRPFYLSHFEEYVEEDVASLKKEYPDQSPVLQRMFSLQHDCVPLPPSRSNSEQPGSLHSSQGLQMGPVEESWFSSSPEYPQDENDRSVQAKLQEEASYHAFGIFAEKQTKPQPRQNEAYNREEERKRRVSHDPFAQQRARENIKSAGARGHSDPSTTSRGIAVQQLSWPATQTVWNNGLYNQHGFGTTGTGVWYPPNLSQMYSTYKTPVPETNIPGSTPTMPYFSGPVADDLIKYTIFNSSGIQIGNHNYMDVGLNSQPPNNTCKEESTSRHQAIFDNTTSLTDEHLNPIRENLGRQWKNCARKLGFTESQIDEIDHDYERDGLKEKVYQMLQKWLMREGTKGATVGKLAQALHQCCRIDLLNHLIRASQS

B1: TNF receptor, endogenous, in mouse embryonic fibroblasts (MEF) (receptor, UniProt P25118 30-454, looked up)
chain: LVPSLGDREKRDSLCPQGKYVHSKNNSICCTKCHKGTYLVSDCPSPGRDTVCRECEKGTFTASQNYLRQCLSCKTCRKEMSQVEISPCQADKDTVCGCKENQFQRYLSETHFQCVDCSPCFNGTVTIPCKETQNTVCNCHAGFFLRESECVPCSHCKKNEECMKLCLPPPLANVTNPQDSGTAVLLPLVILLGLCLLSFIFISLMCRYPRWRPEVYSIICRDPVPVKEEKAGKPLTPAPSPAFSPTSGFNPTLGFSTPGFSSPVSSTPISPIFGPSNWHFMPPVSEVVPTQGADPLLYESLCSVPAPTSVQKWEDSAHPQRPDNADLAILYAVVDGVPPARWKEFMRFMGLSEHEIERLEMQNGRCLREAQYSMLEAWRRRTPRHEDTLEVVGLVLSKMNLAGCLENILEALRNPAPSSTTRLPR
notes: also called TNF receptor complex
B2: TNF receptor, endogenous, in HeLa cells (receptor, human, UniProt P19438 30-455, looked up)
chain: LVPHLGDREKRDSVCPQGKYIHPQNNSICCTKCHKGTYLYNDCPGPGQDTDCRECESGSFTASENHLRHCLSCSKCRKEMGQVEISSCTVDRDTVCGCRKNQYRHYWSENLFQCFNCSLCLNGTVHLSCQEKQNTVCTCHAGFFLRENECVSCSNCKKSLECTKLCLPQIENVKGTEDSGTTVLLPLVIFFGLCLLSLLFIGLMYRYQRWKSKLYSIVCGKSTPEKEGELEGTTTKPLAPNPSFSPTPGFTPTLGFSPVPSSTFTSSSTYTPGDCPNFAAPRREVAPPYQGADPILATALASDPIPNPLQKWEDSAHKPQSLDTDDPATLYAVVENVPPLRWKEFVRRLGLSDHEIDRLELQNGRCLREAQYSMLATWRRRTPRREATLELLGRVLRDMDLLGCLEDIEEALCGPAALPPAPSLLR
B3: Sam68, endogenous, in mouse embryonic fibroblasts (MEF) (other, UniProt Q60749 1-443, looked up)
chain: MQRRDDPASRLTRSSGRSCSKDPSGAHPSVRLTPSRPSPLPHRPRGGGGGPRGGARASPATQPPPLLPPSTPGPDATVVGSAPTPLLPPSATAAVKMEPENKYLPELMAEKDSLDPSFTHAMQLLSVEIEKIQKGESKKDDEENYLDLFSHKNMKLKERVLIPVKQYPKFNFVGKILGPQGNTIKRLQEETGAKISVLGKGSMRDKAKEEELRKGGDPKYAHLNMDLHVFIEVFGPPCEAYALMAHAMEEVKKFLVPDMMDDICQEQFLELSYLNGVPEPSRGRGVSVRGRGAAPPPPPVPRGRGVGPPRGALVRGTPVRGSITRGATVTRGVPPPPTVRGAPTPRARTAGIQRIPLPPTPAPETYEDYGYDDTYAEQSYEGYEGYYSQSQGESEYYDYGHGELQDSYEAYGQDDWNGTRPSLKAPPARPVKGAYREHPYGRY
notes: also called KHDRBS1

In experiment [1] the target is B3. The experiment can be described thus: immunoprecipitation of endogenous Sam68 from MEF cells, immunoblot for TNFR (FIG. 10). On the procedure: (§1) 20-25×10⁶ control and treated cells were lysed in a rotator at 4° C. for 30 minutes in the lysis buffer (1.0% Triton-X100, 20 mM HEPES (pH 7.6), 150 mM NaCl, 1 mM EDTA, 10% glycerol and complete protease inhibitor cocktail). The immunoprecipitates were washed thrice with the lysis buffer and boiled with LDS sample buffer (Invitrogen). Samples with the endogenous protein complexes were resolved in Novex 4-12% Bis-Tris gels (Invitrogen) and transferred to nitrocellulose membrane, probed using relevant antibodies and detected using the SuperSignal West Pico or West Femto Chemiluminescent Substrate System (Pierce). Detection of proteins in the immunoprecipitates with molecular weight close to the denatured heavy and light chains of immunoglobulins (50 kDa and 25 kDa respectively) was performed using native IgG detection reagent (Pierce). […] Additionally, membrane fractionation was performed on cells treated with TNF.
A general note: In western blotting, separated proteins are transferred to a membrane and probed.

The target of experiment [2] is T2, Sam68, endogenous, in human cells (HeLa, 293T) (human, UniProt Q07666 1-443).
T2 construct: also called endogenous Sam68
Put plainly: immunoprecipitation of TNFR with anti-TNFR antibody from HeLa cells, immunoblot (FIG. 9E). On the procedure:
as §1

Experiment [3] deals with T1, RIP, endogenous, in mouse embryonic …. Put plainly: immunoprecipitation of Sam68 from TNF-treated MEF cells, probed for RIP (FIG. 15E).

Regarding B1, the binding result in experiment [1] is “binds”.

As for B2, the binding result in experiment [2] is “binds”.

For the molecule B3, in experiment [3], the binding result was “binds”.
